According to US9850293B2, “Targeting trastuzumab-resistant HER2+ breast cancer with a HER3-targeting nanoparticle” (priority 2014, dated 2017):

Experiments:
JIMT-1 tumors = experiment: Trastuzumab-resistant tumor growth in vivo; parameters: species or system mouse; details: 0.004 mg Dox/kg/injection, twice-weekly IV
Method: (§1) Tumor volumes were measured by calipers. Day 0 corresponds to first day of treatment. N=10 tumors per treatment.
as §1
The efficacy of HerDox was also examined on a cell line with pre-existing resistance.
The contribution of HER3 to targeted toxicity was evaluated by assessing whether pre-adsorbing HerDox with a peptide comprising the ligand-binding domain of HER3 blocked cytotoxicity.

MDA-MB-435 cells = experiment: Intracellular translocation of HerDox and Dox (microscopy); assay type: cell-based, human
Method: Live (unfixed) cells were imaged by brightfield and fluorescence microscopy.
Live (unfixed) cells were imaged by DIC and confocal fluorescence microscopy.
FIG. 15 illustrates HerDox trafficking in breast cancer cells. Cells incubated with HerDox at 37° C. were fixed at the indicated time points and processed for immunofluorescence using an antibody against HerPBK10. Images were captured using confocal microscopy under fluorescence and brightfield. n, nucleus; Bar, ˜8 microns.

[1] = HerDox stability in cell culture media (agarose gel); assay type: in vitro ADME; details: serum-containing media, 37° C.
Method: FIG. 9 (C) illustrates that there is stability in cell culture. Aliquots of culture media containing HerDox (after incubation for the indicated times at 37° C.) were electrophoresed on a 2% agarose gel. HerDox incubated at 37° C. in HEPES-buffered saline, lacking serum, was processed in parallel. Dox fluorescence was visualized by UV excitation. Free Dox (Dox alone) is not retained in the gel whereas Dox incorporated in HerDox is. To align fluorescent bands with HerPBK10 and assess loading per lane, the gel was stained with Coomassie blue, which also identified serum protein from culture media samples.
By three days, HerDox reduced HER2+ cell numbers by over 75% whereas HER2− cell survival was unaffected (FIG. 7). […] These findings emphasize the importance of targeting by showing that the untargeted drug affects nontarget (i.e. HER2−) cells. […] To test receptor targeting, the inventors used free heregulin ligand (Her or eHRG) as a competitive inhibitor. […] As a final in vitro challenge, the inventors tested whether HerDox induces toxicity specifically to HER2+ cells in a mixed culture of HER2+ and HER2− breast cancer cells. To do this, the inventors produced a HER2− cell line tagged with green fluorescent protein (GFP) for cell identification in the mixed culture (FIG. 9-A). […]

B1: HerDox: non-covalent complex of HerPBK10, double-stranded oligonucleotide and intercalated Dox (Unit A+Unit B+Unit C) (conjugate)
chain: SHLVKCAEKEKTFCVNGGECFMVKDLSNPSRYLCKCQPGFTGARCTENVPMKVQNQEKAEELYQKMRRAAMYEEGPPPSYESVVSAAPVAAALGSPFDAPLDPPFVPPRYLRPTGGRNSIRYSELAPLFDTTRVYLVDNKSTDVASLNYQNDHSNFLTTVIQNNDYSPGEASTQTINLDDRSHWGGDLKTILHTNMPNVNEFMFTNKFKARVMVSRLPTKDNQVELKYEWVEFTLPEGNYSETMTIDLMNNAIVEHYLKVGRQNGVLESDIGVKFDTRNFRLGFDPVTGLVMPGVYTNEAFHPDIILLPGCGVDFTHSRLSNLLGIRKRQPFQEGFRITYDDLEGGNIPALLDVDAYQASLKDDTEQGGGGAGGSNSSGSGAEENSNAAAAAMQPVEDMNDHAIRGDTFATRAEEKRAEAEAAAEAAAPAAQPEVEKPQKKPVIKPLTEDSKKRSYNLISNDSTFTQYRSWYLAYNYGDPQTGIRSWTLLCTPDVTCGSEQVYWSLPDMMQDPVTFRSTRQISNFPVVGAELLPVHSKSFYNDQAVYSQLIRQFTSLTHVFNRFPENQILARPPAPTITTVSENVPALTDHGTLPLRNSIGGVQRVTITDARRRTCPYVYKALGIVSPRVLSSRTFKKKKKKKKKK
modifications: left off: small tags and cut ends
- effect on JIMT-1 tumor growth (JIMT-1 tumors): ablated tumor growth
- intracellular location of Dox fluorescence (MDA-MB-435 cells; 0 min of uptake, 0.5 μM): mostly at the cell periphery
- localization of HerPBK10 and Dox (immunofluorescence) (MDA-MB-435 cells; 30 and 60 min): increasing levels of Dox accumulate in the nucleus while the majority of HerPBK10 remains in the cytoplasm
- colocalization of HerPBK10 and Dox (immunofluorescence) (MDA-MB-435 cells; 15 min of uptake): HerPBK10 mostly colocalizes with Dox
- intracellular location of Dox fluorescence (MDA-MB-435 cells; 60 min): accumulated in the nucleus
- intranuclear pattern of Dox in live cells (MDA-MB-435 cells; confocal, live cells): preferentially accumulates in nucleolar structures
- loss of Dox fluorescence from conjugate in culture media [1]: no such loss
